Data reported in US20170241986A1, “METHODS FOR IDENTIFYING COMPOUNDS THAT ALTER THE ACTIVITY OF IRHOM POLYPEPTIDES AND USE THEREOF” (The Jackson Laboratory, priority 2014, published 2017).

Assays:
iRhom2 [1] = test: Cyclohexamide chase with flow cytometry of Flag-tagged iRhom2 protein in COS7 cells; format: cell-based; details: 150 μg/ml cyclohexamide chase, within one hour
Method: (§1) Flow cytometry—293T and COS7 cells plated in 6 well plates were transiently transfected with 600 ng of HuWt or HuCub or HuWt p.I186T cDNAs using Lipofectamine™ LTX reagent. After 40 h, cells were incubated in 150 μg/ml of cyclohexamide for 0, 0.5, 1, 2 and 4 h. Following that, cells were fixed in 150 μls of freshly prepared cold 4% PFA at RT for 40 min. Cells were washed once with 2 ml PBST and resuspended in 150 μls of PBST for 15 min at RT in the dark. After another wash, cells were resuspended in 125 μls of PBST containing phycoerythrin-labeled anti-DDK primary antibody (1:50) on ice for 30 min. After a final wash, cells were resuspended in FACS buffer and subjected to flow cytometry analysis (BD FACSCalibur).
Statistical analysis—GraphPad Prism v4 (GraphPad Software, San Diego, Calif.) was used to generate Kaplan-Meier survival curves and calculate protein half-life (One phase exponential decay equation). One-way ANOVA and t-tests determined statistical differences. P value less than 0.05 was considered statistically significant.

iRhom2 [2] = test: Flow cytometry of protein expression of Flag-tagged constructs in 293T and COS7 cells; format: cell-based, human; details: 48 h post transfection
Method: as §1, with “After 40 h, cells were incubated in 150 μg/ml of cyclohexamide for 0, 0.5, 1, 2 and 4 h.” left out

AREG [3] = test: ELISA of AREG in conditioned medium of transfected 293T cells (in vitro cleavage assay); format: cell-based, human; details: 293T cells, co-expression with AREG, absence of MM
Text: To test whether Rhbdf2^cub, with its short N-terminal domain, could induce secretion of AREG independently of metalloprotease activity, we performed in vitro cleavage assays in the presence or absence of marimastat (MM), a potent broad-spectrum metalloprotease inhibitor that can block both ADAM17- and ADAM10-dependent shedding of substrates. Because of the significant homology between the mouse and human RHBDF2 genes we transfected 293T cells with human AREG either alone or with the human wildtype (HuWt) or human Cub (HuCub) RHBDF2 genes (FIG. 5A), and measured AREG levels in conditioned medium. In the absence of MM, we observed no difference in AREG levels between AREG-expressing and AREG/HuCub co-expressing cells, whereas co-expression of HuWt and AREG reduced AREG levels by ˜60% (FIG. 5B).
Human AREG, HB-EGF and EGF ELISA: Transient transfections were performed in 293T cells seeded in 24-well plates. Using lipofectamine LTX with Plus reagent 16.5 fmol of HuWt or HuCub was co-transfected with 25 ng of AREG or 50 ng of HB-EGF or 200 ng of EGF. The total amount of transfected DNA was made up to equal amount per well with pCMV6-AC-HA vector. After 24 h, DMSO or 10 μM MM in 1 ml of fresh medium replaced the old medium. After 24 h, 100 μl of supernatant was either undiluted (HB-EGF and EGF) or diluted five-fold (AREG) and subjected to ELISA as per the manufacturer's instructions (DY262, DY259, and DY236).

AREG [4] = test: Co-immunoprecipitation of iRhom2-AREG complex; format: binding, human; details: COS7 cell lysates, anti-Flag immunoprecipitation
Method: Immunoprecipitation: 293T and COS7 cell transfections were carried according to the manufacturer's instructions (Life technologies). Cells plated in 6 well plates were treated with 400 μls of Cell Lysis Buffer (Cell Signaling, Danvers, Mass.) containing complete mini protease inhibitors (Roche Applied Science, Indianapolis, Ind.), incubated on ice for 10 min and centrifuged at 14,000 g for 10 min in a cold room. Cell supernatant was incubated overnight with 20 μls of magnetic beads conjugated with Anti-DDK antibody (Origene) in a cold room on a rocking platform. Following overnight incubation, beads/slurry was washed with three times with TBS-T, and protein was collected using 2×SDS-PAGE loading buffer.

B1: HuWt: full-length wildtype human RHBDF2 cDNA (iRhom2) in a C-terminal Flag-tagged expression vector (protein)
chain: MASADKNGGSVSSVSSSRLQSRKPPNLSITIPPPEKETQAPGEQDSMLPEGFQNRRLKKSQPRTWAAHTTACPPSFLPKRKNPAYLKSVSLQEPRSRWQESSEKRPGFRRQASLSQSIRKGAAQWFGVSGDWEGQRQQWQRRSLHHCSMRYGRLKASCQRDLELPSQEAPSFQGTESPKPCKMPKIVDPLARGRAFRHPEEMDRPHAPHPPLTPGVLSLTSFTSVRSGYSHLPRRKRMSVAHMSLQAAAALLKGRSVLDATGQRCRVVKRSFAFPSFLEEDVVDGADTFDSSFFSKEEMSSMPDDVFESPPLSASYFRGIPHSASPVSPDGVQIPLKEYGRAPVPGPRRGKRIASKVKHFAFDRKKRHYGLGVVGNWLNRSYRRSISSTVQRQLESFDSHRPYFTYWLTFVHVIITLLVICTYGIAPVGFAQHVTTQLVLRNKGVYESVKYIQQENFWVGPSSIDLIHLGAKFSPCIRKDGQIEQLVLRERDLERDSGCCVQNDHSGCIQTQRKDCSETLATFVKWQDDTGPPMDKSDLGQKRTSGAVCHQDPRTCEEPASSGAHIWPDDITKWPICTEQARSNHTGFLHMDCEIKGRPCCIGTKGSCEITTREYCEFMHGYFHEEATLCSQVHCLDKVCGLLPFLNPEVPDQFYRLWLSLFLHAGVVHCLVSVVFQMTILRDLEKLAGWHRIAIIFILSGITGNLASAIFLPYRAEVGPAGSQFGLLACLFVELFQSWPLLERPWKAFLNLSAIVLFLFICGLLPWIDNIAHIFGFLSGLLLAFAFLPYITFGTSDKYRKRALILVSLLAFAGLFAALVLWLYIYPINWPWIEHLTCFPFTSRFCEKYELDQVLH
modifications: left off: small tags and cut ends
notes: full-length wildtype human RHBDF2 cDNA (iRhom2) in a C-terminal Flag-tagged expression vector
With B1 the “reduction in immunoreactivity compared with HuCub or p.I186T” value (iRhom2 [1]) was “approximately 50%”, the “protein expression level compared to HuCub and p.I186T” value (iRhom2 [2]) was “significantly lower” and the “reduction of AREG levels in conditioned medium” value (AREG [3]) was ~60%. For the same molecule, the “physical complex with AREG” value (AREG [4]) was “forms physical complexes with AREG”.
